Test results as given in patent US20220306734A1 (H LUNDBECK A S, published 2022).
Where a chain is given by its changes, count along the chain named.

B1: mGluR5 Ab22 (antibody, V domains shown)
VH: QSLEESGGDLVKPGASLTLTCTASGFSFSTSYYMCWVRQAPGKGLEWIGCIHTSTFSTWYASWAKGRFTISKTSSTTVTLQMTSLTAADTATYFCARRDAYNYAGYAYNLWGQGTLVTVSS
VL: DVVMTQTPASVSAAVGGTVTINCQASEDIYSNLAWYQQKPGQPPKLLIYGASTLASGVPSRFKGSGSGTEFTLTISDLECADAATYYCQCTFGCFSGSSNNIFGGGTEVVVKR
B2: mGluR5 Ab4 (antibody, V domains shown)
VH: QQQLEESGGGLVKPGGTLTLTCKGSGIDFNDYQYMCWVRQAPGKGLEWIACIYNGDGETYYAHWAKGRFTISKTSSTTVTLQMTSLTAADTATYFCARGSGVGSYGYNFWGPGTLVTVSS
VL: DIVMTQTPASVEAAVGGTVTIKCQASESIYSNLAWYQQKAGQPPKLLIYRASNLASGVPSRFKGSGSGTEFTLTISDLECADAATYYCQGYYASTVTNGFGGGTEVVVKR
notes: Rabbit variable regions on human heavy and light chain constant regions (chimeric)
B3: mGluR5 Ab26 (antibody, V domains shown)
VH: QSVEESGGGLVKPEGSLTLTCKASGFDLSSYYYMCWVRQAPGKGPEWIACIYAGDGTTYYASWAKGRFTISKTSSTTVTLQMTSLTAADTATYFCARGTGVGSYGYNLWGPGTLVTVSS
VL: B2 VL with S28N, A40P, A55E, A81D, A93P, T95A, G99A
B4: mGluR5 Ab28 (antibody, V domains shown)
VH: B2 VH with Q33Y, H63N
VL: B2 VL with A40P, G99A
B5: mGluR5 Ab29 (antibody, V domains shown)
VH: B2 VH with G24A, N30S, D31S, Q33H, E58D, H63S, F109L
VL: B2 VL with S28N, A40P, A55E, A81D, A93P, T95A, G99A
B6: mGluR5 Ab27 (antibody, V domains shown)
VH: B3 VH with E14G, S16T, F26I, L28F, Y32H, P45L, A53N, T57D, T99S
VL: B2 VL with A40P, A55E, V96T, G99A
B7: mGluR5 Ab25 (antibody, V domains shown)
VH: QRQLEESGGGLVKPGGALTLTCKASGIDFSSYYYRCWVRQAPGKGLEWIACIYTGDGTTYYASWAKGRFTTSKTSSTTVTLQMTSLTAADTATYFCARGSGVGSYGYNFWGPGTLVTVSS
VL: B2 VL with A40P, N53T, A55E, T95I, V96I, G99A
B8: mGluR5 Ab24 (antibody, V domains shown)
VH: QQQLEESGGGLVKPGGTLTLTCKASGIDFSNVYYMCWVRQAPGKGPEWIACIYVGDGSTYDASWARGRFTISKTSSTTVTLQMISLTAADTATYFCAGGTGVGSYGYSLWGPGTLVTVSS
VL: B2 VL with Q37H, A40P, A55E, E70D, T95V
B9: mGluR5 Ab9 (antibody, V domains shown)
VH: QSVEESGGRLVTPGTPLTLTCTVSGFSLNNYAMNWIRQAPGKGLEWIGIIYGSGSTYYASWAKGRFTASKTSTTVDLKMTSLTTEDTATYFCARDELAAGINYFTLWGQGTLVTVSS
VL: ALVMTQTPASVEVAVGGTVTIKCQASQNIIDWCSWYQQKLGQPPKLLIYEASKLASGVPSRFKGSGSGTQFTLTISGVECADAATYYCQQGYSPSGVDNVFGGGTEVVVKR
notes: as for B2

Legend:
[1] = target: full-length (FL) human mGluR5 on BA/F3-mGluR5 clone 10C9 cells (human) (UniProt P41594); test: flow cytometry, BA/F3-mGluR5 10C9 cells; low end tied to Ab22 by Table 2
[2] = target: human mGluR5 extracellular domain (human-mGluR5-ECD) (human) (UniProt P41594); test: HTRF, soluble ECD
Sequence of human mGluR5 extracellular domain (human-mGluR5-ECD) (human) (P41594 other isoform, or with tags, fused parts or gaps): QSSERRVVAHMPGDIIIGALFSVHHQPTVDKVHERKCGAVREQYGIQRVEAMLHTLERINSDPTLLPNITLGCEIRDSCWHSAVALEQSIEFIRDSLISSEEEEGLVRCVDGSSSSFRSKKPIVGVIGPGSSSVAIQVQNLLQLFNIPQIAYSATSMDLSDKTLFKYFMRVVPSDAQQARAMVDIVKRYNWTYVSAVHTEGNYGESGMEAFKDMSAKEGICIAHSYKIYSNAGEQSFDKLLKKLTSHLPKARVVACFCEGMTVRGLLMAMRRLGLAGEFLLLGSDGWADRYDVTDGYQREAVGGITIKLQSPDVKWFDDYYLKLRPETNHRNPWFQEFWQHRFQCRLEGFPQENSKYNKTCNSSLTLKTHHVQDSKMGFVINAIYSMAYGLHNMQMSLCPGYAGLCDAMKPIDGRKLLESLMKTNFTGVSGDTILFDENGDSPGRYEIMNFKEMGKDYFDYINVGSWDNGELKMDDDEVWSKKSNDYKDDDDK

[3] = target: human mGluR5 extracellular domain (human-mGluR5-ECD) (human) (UniProt P41594); test: HTRF, soluble ECD; remark: listed apart in the source
[4] = target: full-length (FL) human mGluR5 on BA/F3-mGluR5 clone 10C9 cells (human) (UniProt P41594); test: cell-based or functional assay
[5] = target: full-length (FL) human mGluR5 on BA/F3-mGluR5 clone 10C9 cells (human) (UniProt P41594); test: flow cytometry, BA/F3-mGluR5 10C9 cells, 10 ug/ml antibody
[6] = target: full-length (FL) human mGluR5 on BA/F3-mGluR5 clone 10C9 cells (human) (UniProt P41594); test: flow cytometry, BA/F3-mGluR5 10C9 cells; high end tied to Ab4 by Table 2
[7] = target: T1, human mGluR1 extracellular domain (human-mGluR1-ECD) (human, UniProt Q13255 19-592, limits assumed); test: HTRF, soluble ECD
T1 construct: ECD construct made 'in a similar fashion' to the human mGluR5 one; also called hu-mGluR1
T1 sequence (Q13255 other isoform, or with tags, fused parts or gaps limits assumed): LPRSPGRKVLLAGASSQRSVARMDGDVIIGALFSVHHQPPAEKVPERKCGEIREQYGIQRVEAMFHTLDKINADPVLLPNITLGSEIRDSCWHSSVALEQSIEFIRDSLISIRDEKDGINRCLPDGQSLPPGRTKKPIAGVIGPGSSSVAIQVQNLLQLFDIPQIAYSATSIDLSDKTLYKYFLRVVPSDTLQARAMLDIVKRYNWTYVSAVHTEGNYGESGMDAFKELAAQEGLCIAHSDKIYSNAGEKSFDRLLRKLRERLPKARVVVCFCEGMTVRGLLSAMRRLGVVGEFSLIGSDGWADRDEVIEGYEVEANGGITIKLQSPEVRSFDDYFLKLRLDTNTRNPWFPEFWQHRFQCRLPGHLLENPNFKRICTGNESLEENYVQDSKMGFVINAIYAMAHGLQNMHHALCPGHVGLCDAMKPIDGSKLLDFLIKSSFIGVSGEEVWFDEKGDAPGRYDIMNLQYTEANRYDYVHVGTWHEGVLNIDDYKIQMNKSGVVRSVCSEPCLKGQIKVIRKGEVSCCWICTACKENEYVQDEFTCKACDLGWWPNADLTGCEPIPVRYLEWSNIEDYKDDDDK
Description: (§1) Binding of antibodies to mGluR5/mGluRJ measured via Homogeneous Time-Resolved Fluorescence (HTRF). Binding assays were performed using HTRF reagents from CisBio. Ten microliters of an antibody dilution series (highest final concentration of 30 nM) was incubated with 10 μl of mGluR-ECD (10 nM final concentration) in HTRF buffer (50 mM Phosphate buffer pH7, 0.8M KF (potassium fluoride), 0.2% BSA). Twenty microliters of Europium-labeled anti-hu-Fc donor (2 nM final concentration, CisBio Catalog No. 61HFCKLB) and 20 μl of XL665-labeled anti-Flag acceptor (60 nM final concentration, CisBio Catalog No. 61FG2XLB) were added to each well and incubated for 1 hour at room temperature. Alternatively, the antibody dilution series was incubated with 10 μl of biotinylated mGluR-ECD (10 nM final concentration), and 20 μl of Europium-labeled anti-hu-Fc donor (2 nM final concentration) and 20 μl of d2-labeled streptavidin acceptor (60 nM final concentration, CisBio Catalog No. 610SADLB) were added to each well. Fluorescence was measured at 620 and 665 nm with a delay of 300 μsec. Results were expressed as the ratio of signal at 665 nm over 620 nm. EC₅₀ values were calculated for binding of Ab1-Ab23 to human-mGluR5-ECD, of Ab1-Ab21 to rat-mGluR5-ECD, and of Ab1, Ab2 and Ab4-Ab12 to monkey-mGluR5-ECD and to human-mGluR1-ECD (TABLE 1).

[8] = target: T2, cynomolgus monkey mGluR5 extracellular domain (monkey-mGluR5-ECD) (cynomolgus monkey, UniProt P41594 21-580 (human entry), limits assumed); test: HTRF, soluble ECD
T2 construct: ECD construct made 'in a similar fashion' to the human one; also called cyno-mGluR5
T2 sequence (P41594 other isoform, or with tags, fused parts or gaps limits assumed): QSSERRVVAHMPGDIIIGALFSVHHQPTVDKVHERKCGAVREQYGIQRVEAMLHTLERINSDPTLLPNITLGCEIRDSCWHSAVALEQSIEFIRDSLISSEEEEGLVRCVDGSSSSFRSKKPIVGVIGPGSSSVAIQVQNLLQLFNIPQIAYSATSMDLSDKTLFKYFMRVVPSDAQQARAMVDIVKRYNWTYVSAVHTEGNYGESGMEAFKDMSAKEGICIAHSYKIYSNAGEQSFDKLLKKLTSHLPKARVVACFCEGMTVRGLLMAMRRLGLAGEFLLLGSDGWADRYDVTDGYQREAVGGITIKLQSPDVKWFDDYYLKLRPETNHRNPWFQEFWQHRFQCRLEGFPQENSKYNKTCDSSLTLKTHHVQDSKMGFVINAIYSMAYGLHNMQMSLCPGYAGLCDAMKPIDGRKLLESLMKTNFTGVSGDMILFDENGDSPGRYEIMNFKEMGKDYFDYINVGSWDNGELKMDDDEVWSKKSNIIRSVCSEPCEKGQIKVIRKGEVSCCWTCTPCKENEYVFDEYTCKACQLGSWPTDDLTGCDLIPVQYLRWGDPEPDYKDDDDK
Description: as §1

[9] = target: T3, rat mGluR5 extracellular domain (rat-mGluR5-ECD) (rat, UniProt P31424 21-504); test: HTRF, soluble ECD
T3 construct: ECD construct made 'in a similar fashion' to the human one
T3 sequence (P31424 other isoform, or with tags, fused parts or gaps limits assumed, form in doubt): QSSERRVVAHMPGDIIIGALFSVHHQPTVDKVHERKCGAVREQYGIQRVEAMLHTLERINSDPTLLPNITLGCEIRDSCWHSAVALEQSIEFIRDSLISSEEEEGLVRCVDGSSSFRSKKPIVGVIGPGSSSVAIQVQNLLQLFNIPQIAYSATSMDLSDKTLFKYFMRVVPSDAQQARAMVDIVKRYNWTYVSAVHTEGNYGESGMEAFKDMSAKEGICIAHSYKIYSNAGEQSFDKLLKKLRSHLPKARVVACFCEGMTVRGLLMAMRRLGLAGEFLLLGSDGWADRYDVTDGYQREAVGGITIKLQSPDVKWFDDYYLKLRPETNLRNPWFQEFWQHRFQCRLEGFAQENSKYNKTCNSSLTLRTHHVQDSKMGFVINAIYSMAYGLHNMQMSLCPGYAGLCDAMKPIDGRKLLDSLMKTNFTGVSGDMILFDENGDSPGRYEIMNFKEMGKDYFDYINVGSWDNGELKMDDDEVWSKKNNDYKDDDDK
Description: as §1

[10] = target: human mGluR5 extracellular domain (human-mGluR5-ECD) (human) (UniProt P41594); test: AlphaLISA, biotinylated ECD
[11] = target: human mGluR5 extracellular domain (human-mGluR5-ECD) (human) (UniProt P41594); test: AlphaLISA, biotinylated ECD; remark: listed apart in the source

| Binder | fold signal over background [1] | EC50 [2] | EC50 [3] | pERK Assay Inhibition IC50-nM [4] | mGluR5 (FL) cell binding-fold over background [5] | fold signal over background [6] | binding result [7] | EC50 [8] | EC50 [9] | EC50 [10] | EC50 [11] |
| --- | --- | --- | --- | --- | --- | --- | --- | --- | --- | --- | --- |
| B1 | 10 to 42 fold | < 2 nM | 0.439 nM | 8.33 nM | 10.9 fold |  |  |  |  |  |  |
| B2 |  | < 2 nM | 0.293 nM | 0.34 nM | 41.8 fold | 10 to 42 fold | no binding | 0.286 nM | 0.332 nM |  |  |
| B3 |  |  |  | 0.1 nM | 39.4 fold |  |  |  |  | 0.101 nM | < 2 nM |
| B4 |  |  |  | 0.11 nM | 38.9 fold |  |  |  |  | 0.0918 nM | < 2 nM |
| B5 |  |  |  | 0.09 nM | 39.6 fold |  |  |  |  | 0.0891 nM | < 2 nM |
| B6 |  |  |  | 0.06 nM | 37.8 fold |  |  |  |  | 0.0772 nM | < 2 nM |
| B7 |  |  |  | 0.11 nM | 37.9 fold |  |  |  |  | 0.0915 nM | < 2 nM |
| B8 |  |  |  | 0.1 nM | 37.2 fold |  |  |  |  | 0.0947 nM | < 2 nM |
| B9 |  | < 2 nM | 0.998 nM | 2.97 nM | 28.4 fold |  | no binding | 0.398 nM | 0.519 nM |  |  |
